The source of these data is US20260166158A1, “HSP90-BINDING CONJUGATES AND FORMULATIONS THEREOF” (Fusion Pharmaceuticals Inc., priority 2019, published 2026).

Data set [1] relates to NCI-H460 tumor-bearing mice (lung cancer). Briefly: Biodistribution: lutetium accumulation in tumor, plasma and healthy tissues by ICP-MS. To be noted: for T/K (Tumor/Kidney ratio) / T/L (Tumor/Liver ratio) / T/P (Tumor/Plasma ratio) / Kidney uptake, % ID/g 24 h / Liver uptake, % ID/g 24 h / Plasma, % ID/g 24 h / Tumor uptake, % ID/g, 24 h / % ID/g uptake, H460 tumor, 24 h / % ID/g uptake, Kidney, 24 h / % ID/g uptake, Liver, 24 h / % ID/g uptake, Plasma, 24 h: 24 h; for Kidney uptake, % ID/g 24 h / Liver uptake, % ID/g 24 h / Plasma, % ID/g 24 h / Tumor uptake, % ID/g, 24 h: second table; for % ID/g uptake, H460 tumor, 24 h / % ID/g uptake, H460 tumor, 72 h / % ID/g uptake, Kidney, 24 h / % ID/g uptake, Kidney, 72 h / % ID/g uptake, Liver, 24 h / % ID/g uptake, Liver, 72 h / % ID/g uptake, Plasma, 24 h / % ID/g uptake, Plasma, 72 h: 0.5 mg/kg lutetium conjugate. The format is in vivo. Put shortly:
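NCI-H460 tumor-bearing mice received 0.5 mg/kg lutetium conjugates; at set time points tumor, liver, kidneys and plasma were collected. Lutetium content measured by ICP-MS and expressed as % ID/g, with 24 h tumor/kidney, tumor/liver and tumor/plasma ratios.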

In data set [2] the test system is NCI-H460 tumor model. The experiment in a line: Distribution of cold (Lu175) analog of CMP6. It is filed as in vivo. The protocol: In yet another study with the NCI-H460 tumor model, the distribution of the cold analog of CMP6 was measured at 24 hours and 72 hours.
Data set [3] has as its target T1, purified N-terminal HSP90a (Homo sapiens, UniProt P07900).
T1 construct: 350 ng of N-terminal HSP90a
Briefly: HSP90 binding, competitive fluorescence polarization assay. The protocol: HSP90 binding was determined by a competitive fluorescence polarization assay with purified N-terminal HSP90a. A series of dilutions of the test compounds were prepared with 10% DMSO in assay buffer and 10 μl of the dilution was added to a 100 μl reaction so that the final concentration of DMSO is 1% in all reactions. The reactions were conducted at room temperature for 3 hours in a 100 μl mixture containing assay buffer, 5 nM FITC Labeled Geldanamycin, 350 ng of N-terminal HSP90a, and the test compound. Fluorescence intensity was measured at an excitation of 485 nm and an emission of 530 nm using a Tecan Infinite M1000 microplate reader. Fluorescence intensity is converted to fluorescence polarization using the Tecan Magellan6 software. The fluorescence polarization data were analyzed using the computer software, Graphpad Prism. The fluorescence polarization (FPt) in absence of the compound in each data set was defined as 100% activity. In the absence of protein and the compound, the value of fluorescent polarization (FPb) in each data set was defined as 0% activity. The percent activity in the presence of the compound was calculated according to the following equation: % activity=(FP−FPb)/(FPt−FPb)×100%, where FP=the fluorescence polarization in the presence of the compound. HSP90 binding data are below.
On the technique in general: In fluorescence polarisation assays a small probe gives low polarisation when free and higher when bound to something large.

The subject of data set [4] is NCI-H460 tumor model. Briefly: Distribution of radioactive (177Lu) versus non-radioactive (175Lu) analog of CMP51. The format is in vivo. Conditions: radioactive analog comprising Lu177. The protocol: In another study with the NCI-H460 tumor model, the distribution of the radioactive (hot) analog of CMP51 (177Lu) and the distribution of the non-radioactive (cold) analog of CMP51 (175Lu) at 24 hours and 72 hours were tested and compared.

[5] abbreviates: cold analog, 24 hours and 72 hours, FIG. 2.

Molecules are shown by their SMILES.

On to `CCNC(=O)c1nnc(-c2cc(C(C)C)c(O)cc2O)n1-c1ccc(OC2CCN(C(=O)CCOCCOCCOCCOCCNC(=O)[C@H](CCCCNC(=O)CCCc3ccc(I)cc3)NC(=O)CN3CCN4CCN5CCN(CC3)CC(=O)[O][Lu]([O]C(=O)C4)[O]C(=O)C5)CC2)cc1` [CMP6], for which, in data set [1], the “T/K (Tumor/Kidney ratio)” value was found to be 5.48; the “T/L (Tumor/Liver ratio)” value was determined as 4.98; the “T/P (Tumor/Plasma ratio)” value turned out to be 1.98; the “Kidney uptake, % ID/g 24 h” value is 0.62 % ID/g. Besides, in data set [1], the “Liver uptake, % ID/g 24 h” value came out at 0.68 % ID/g; the “Plasma, % ID/g 24 h” value is recorded as 1.72 % ID/g; the “Tumor uptake, % ID/g, 24 h” value turned out to be 3.40 % ID/g. Also, in the data set on NCI-H460 tumor model [2] (setting [5]), the “kidney uptake and retention” value was “significantly reduced kidney uptake and retention”; the liver uptake entry is “significantly reduced”. In addition, the “tumor to liver and tumor to kidney ratios at 72 hours” value with NCI-H460 tumor model [2] (cold analog, 72 hours versus 24 hours) is listed as “enhanced at 72 hours”. In the data set on NCI-H460 tumor model [2] (cold analog, FIG. 2), the “tumor to liver and tumor to kidney ratios” value is “High tumor to liver and tumor to kidney ratios”. Also, the “tumor retention selectivity (FIG. 2 legend)” value in the data set on NCI-H460 tumor model [2] (non-radioactive analog comprising Lu175) is “selective tumor retention over kidney and liver”.
One may read the Kd as the constant that tells how readily two partners part at equilibrium. As for `CCNC(=O)c1nnc(-c2cc(C(C)C)c(O)cc2O)n1-c1ccc2c(ccn2CCC2CCN(C(=O)CC[C@H](NC(=O)CC[C@H](C(=O)O)N3CCN4CCN5CCN(CC3)CC(=O)[O][Lu]([O]C(=O)C5)[O]C(=O)C4)C(=O)N3CCC(CCn4ccc5cc(-n6c(C(=O)NCC)nnc6-c6cc(C(C)C)c(O)cc6O)ccc54)CC3)CC2)c1` [T10], in data set [1], the “% ID/g uptake, H460 tumor, 24 h” value amounted to 3.91 % ID/g; the “% ID/g uptake, H460 tumor, 72 h” value is 3.18 % ID/g; the “% ID/g uptake, Kidney, 24 h” value is listed as 14.70 % ID/g; the “% ID/g uptake, Kidney, 72 h” value amounted to 7.74 % ID/g. For the same molecule, in data set [1], the “% ID/g uptake, Liver, 24 h” value is on record as 7.28 % ID/g; the “% ID/g uptake, Liver, 72 h” value amounted to 4.34 % ID/g; the “% ID/g uptake, Plasma, 24 h” value is 2.29 % ID/g; the “% ID/g uptake, Plasma, 72 h” value was 0.37 % ID/g. The same molecule came in with a Kd in data set [3] of 0.77 nM.
As for `CCNC(=O)c1nnc(-c2cc(C(C)C)c(O)cc2O)n1-c1ccc(CN2CCN(C(=O)CCNC(=O)[C@@H](CCC(=O)N3CCN(Cc4ccc(-n5c(C(=O)NCC)nnc5-c5cc(C(C)C)c(O)cc5O)cc4)CC3)NC(=O)CCNC(=O)[C@@H](CCC(=O)O)NC(=O)[C@@H](CCC(=O)O)NC(=O)[C@@H](CCC(=O)O)NC(=O)COCCOCCNC(=O)[C@H](Cc3ccccc3)NC(=O)CNC(=O)CNC(=O)CC[C@H](C(=O)O)N3CCN4CCN5CCN(CC3)CC(=O)[O][Lu]([O]C(=O)C5)[O]C(=O)C4)CC2)cc1` [T8], in data set [1], the “% ID/g uptake, H460 tumor, 24 h” value amounted to 1.00 % ID/g; the “% ID/g uptake, H460 tumor, 72 h” value came to 0.44 % ID/g; the “% ID/g uptake, Kidney, 24 h” value stood at 3.24 % ID/g; the “% ID/g uptake, Kidney, 72 h” value was 0.84 % ID/g. Also, in data set [1], the “% ID/g uptake, Liver, 24 h” value is 0.30 % ID/g; the “% ID/g uptake, Liver, 72 h” value is given as 0.07 % ID/g; the “% ID/g uptake, Plasma, 24 h” value was 0.17 % ID/g; the “% ID/g uptake, Plasma, 72 h” value is reported as 0.00 % ID/g. Also, binding in data set [3] was put at a Kd of 0.48 nM.
Regarding `CCNC(=O)c1nnc(-c2cc(C(C)C)c(O)cc2O)n1-c1ccc(CN2CCN(C(=O)CCNC(=O)[C@@H](CCC(=O)N3CCN(Cc4ccc(-n5c(C(=O)NCC)nnc5-c5cc(C(C)C)c(O)cc5O)cc4)CC3)NC(=O)CCNC(=O)[C@@H](CCC(=O)O)NC(=O)[C@@H](CCC(=O)O)NC(=O)[C@@H](CCC(=O)O)NC(=O)COCCOCCNC(=O)[C@H](Cc3ccccc3)NC(=O)CNC(=O)[C@H](CCCCNC(=O)CC[C@H](C(=O)O)N(CC)CCN3CCN4CCN(C)CC(=O)[O][Lu]([O]C(=O)C4)[O]C(=O)C3)NC(=O)CCCc3ccc(I)cc3)CC2)cc1` [T15], in data set [1], the “% ID/g uptake, H460 tumor, 24 h” value is 2.16 % ID/g; the “% ID/g uptake, H460 tumor, 72 h” value worked out at 0.70 % ID/g; the “% ID/g uptake, Kidney, 24 h” value is 12.50 % ID/g; the “% ID/g uptake, Kidney, 72 h” value is 4.37 % ID/g. Also, in data set [1], the “% ID/g uptake, Liver, 24 h” value stood at 1.78 % ID/g; the “% ID/g uptake, Liver, 72 h” value was 1.16 % ID/g; the “% ID/g uptake, Plasma, 24 h” value was 2.79 % ID/g; the “% ID/g uptake, Plasma, 72 h” value was 0.14 % ID/g. Binding in data set [3] was characterised by a dissociation constant (Kd) of 0.43 nM.
As for `CCNC(=O)c1nnc(-c2cc(C(C)C)c(O)cc2O)n1-c1ccc(CN2CCN(C(=O)CCNC(=O)[C@@H](CCC(=O)O)NC(=O)[C@@H](CCC(=O)O)NC(=O)[C@@H](CCC(=O)O)NC(=O)COCCOCCNC(=O)CCCCn3cc(CN(CCCNC(=O)CC[C@H](C(=O)O)N4CCN5CCN6CC(=O)[O][Lu]([O]C(=O)C5)[C]5(C6)OC(=O)CN5CC4)C(=O)CCCNC(=O)CCCc4ccc(I)cc4)nn3)CC2)cc1` (some centres unmarked) [CMP51], in data set [1], the “T/K (Tumor/Kidney ratio)” value came out at 0.7; the “T/L (Tumor/Liver ratio)” value stood at 5.6; the “T/P (Tumor/Plasma ratio)” value worked out at 2.5; the “Kidney uptake, % ID/g 24 h” value is recorded as 10.37 % ID/g. Besides, in data set [1], the “Liver uptake, % ID/g 24 h” value is 1.35 % ID/g; the “Plasma, % ID/g 24 h” value worked out at 3.01 % ID/g; the “Tumor uptake, % ID/g, 24 h” value is 7.54 % ID/g. In the data set with NCI-H460 tumor model [4], the “tumor exposure selectivity (FIG. 1 legend)” value is “selective tumor exposure with the exception of kidney”.
As for `CCNC(=O)c1nnc(-c2cc(C(C)C)c(O)cc2O)n1-c1ccc(OC2CCN(C(=O)CCNC(=O)[C@@H](CCC(=O)N3CCC(Oc4ccc(-n5c(C(=O)NCC)nnc5-c5cc(C(C)C)c(O)cc5O)cc4)CC3)NC(=O)CC[C@H](C(=O)O)N3CCN4CCN5CCN(CC3)CC(=O)[O][Lu]([O]C(=O)C5)[O]C(=O)C4)CC2)cc1` [T6], in data set [1], the “% ID/g uptake, H460 tumor, 24 h” value is listed as 7.00 % ID/g; the “% ID/g uptake, H460 tumor, 72 h” value is given as 4.52 % ID/g; the “% ID/g uptake, Kidney, 24 h” value was found to be 6.77 % ID/g; the “% ID/g uptake, Kidney, 72 h” value was determined as 2.57 % ID/g. For the same molecule, in data set [1], the “% ID/g uptake, Liver, 24 h” value is on record as 10.70 % ID/g; the “% ID/g uptake, Liver, 72 h” value is 8.90 % ID/g; the “% ID/g uptake, Plasma, 24 h” value is 1.65 % ID/g; the “% ID/g uptake, Plasma, 72 h” value was found to be 1.89 % ID/g. Binding in data set [3] was characterised by a dissociation constant (Kd) of 0.45 nM.
On to `CCNC(=O)c1nnc(-c2cc(C(C)C)c(O)cc2O)n1-c1ccc(OC2CCN(C(=O)CCNC(=O)[C@@H](CCC(=O)O)NC(=O)[C@@H](CCC(=O)O)NC(=O)[C@@H](CCC(=O)O)NC(=O)COCCOCCNC(=O)[C@H](CCCCNC(=O)CC[C@H](C(=O)O)N3CCN4CCN5CCN(CC3)CC(=O)[O][Lu]([O]C(=O)C5)[O]C(=O)C4)NC(=O)CCCc3ccc(I)cc3)CC2)cc1` [T11], for which, in data set [1], the “% ID/g uptake, H460 tumor, 24 h” value turned out to be 6.37 % ID/g; the “% ID/g uptake, H460 tumor, 72 h” value is listed as 1.74 % ID/g; the “% ID/g uptake, Kidney, 24 h” value is on record as 14.90 % ID/g; the “% ID/g uptake, Kidney, 72 h” value turned out to be 5.21 % ID/g. In data set [1], the “% ID/g uptake, Liver, 24 h” value came to 1.03 % ID/g; the “% ID/g uptake, Liver, 72 h” value is listed as 0.46 % ID/g; the “% ID/g uptake, Plasma, 24 h” value is given as 0.51 % ID/g; the “% ID/g uptake, Plasma, 72 h” value is 0.02 % ID/g. For the same molecule, in data set [3], the affinity, expressed as Kd, was 0.7 nM.
